Measurements: article PMC12594183 (2026)

T1: SIRT1 NTD(3HB)-CD (Homo sapiens, UniProt Q96EB6)
T1 chain: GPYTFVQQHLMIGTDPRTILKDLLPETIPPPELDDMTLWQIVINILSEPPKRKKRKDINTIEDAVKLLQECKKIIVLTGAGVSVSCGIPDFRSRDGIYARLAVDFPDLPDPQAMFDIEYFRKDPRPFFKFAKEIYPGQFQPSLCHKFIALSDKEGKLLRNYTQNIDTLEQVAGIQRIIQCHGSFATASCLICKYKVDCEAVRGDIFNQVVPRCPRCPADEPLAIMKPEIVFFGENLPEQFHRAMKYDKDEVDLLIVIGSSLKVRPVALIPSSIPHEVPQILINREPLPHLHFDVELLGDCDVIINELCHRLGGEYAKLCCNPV

T2: SIRT1 NTD(3HB) (Homo sapiens, UniProt Q96EB6)
T2 chain: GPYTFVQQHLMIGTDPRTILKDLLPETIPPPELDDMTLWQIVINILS

T3: SIRT1 CD (Homo sapiens, UniProt Q96EB6)
T3 chain: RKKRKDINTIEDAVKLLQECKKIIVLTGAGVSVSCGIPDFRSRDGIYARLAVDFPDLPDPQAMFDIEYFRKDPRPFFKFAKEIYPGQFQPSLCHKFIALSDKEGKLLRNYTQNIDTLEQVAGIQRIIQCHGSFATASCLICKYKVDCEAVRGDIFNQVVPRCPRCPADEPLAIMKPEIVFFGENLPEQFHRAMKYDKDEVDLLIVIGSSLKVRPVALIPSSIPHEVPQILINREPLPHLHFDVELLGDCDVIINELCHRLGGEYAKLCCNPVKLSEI


How the values were obtained:
Assay in all cases: FP
SIRT1 NTD(3HB)-CD = molecular target: T1, SIRT1 NTD(3HB)-CD
SIRT1 NTD(3HB) = molecular target: T2, SIRT1 NTD(3HB)
SIRT1 CD = molecular target: T3, SIRT1 CD

| Binder | Kd (SIRT1 NTD(3HB)-CD) [nM] | Kd (SIRT1 NTD(3HB)) [nM] | Kd (SIRT1 CD) [nM] |
| --- | --- | --- | --- |
| PPARγ LBD (protein) PESADLRALAKHLYDSYIKSFPLTKAKARAILTGKTTDKSPFVIYDMNSLMMGEDKIKFKHITPLQEQSKEVAIRIFQGCQFRSVEAVQEITEYAKSIPGFVNLDLNDQVTLLKYGVHEIIYTMLASLMNKDGVLISEGQGFMTREFLKSLRKPFGDFMEPKFEFAVKFNALELDDSDLAIFIAVIILSGDRPGLLNVKPIEDIQDNLLQALELQLKLNHPESSQLFAKLLQKMTDLRQIVTEHVQLLQVIKKTETDMSLHPLLQEIYKDLY | 240 | 6550 | 1620 |
| PPARγ LBD (protein) PESADLRALAKHLYDSYIKSFPLTKAKARAILTGQTTDKSPFVIYDMNSLMMGEDKIKFKHITPLQEQSKEVAIRIFQGCQFRSVEAVQEITEYAKSIPGFVNLDLNDQVTLLKYGVHEIIYTMLASLMNKDGVLISEGQGFMTREFLKSLRKPFGDFMEPKFEFAVKFNALELDDSDLAIFIAVIILSGDRPGLLNVKPIEDIQDNLLQALELQLKLNHPESSQLFAKLLQKMTDLRQIVTEHVQLLQVIKKTETDMSLHPLLQEIYKDLY | 560 |  |  |
| PPARγ LBD (protein) PESADLRALAKHLYDSYIKSFPLTKAKARAILTGKTTDKSPFVIYDMNSLMMGEDKIKFKHITPLDEQSKEVAIRIFQGCQFRSVEAVQEITEYAKSIPGFVNLDLNDQVTLLKYGVHEIIYTMLASLMNKDGVLISEGQGFMTREFLKSLRKPFGDFMEPKFEFAVKFNALELDDSDLAIFIAVIILSGDRPGLLNVKPIEDIQDNLLQALELQLKLNHPESSQLFAKLLQKMTDLRQIVTEHVQLLQVIKKTETDMSLHPLLQEIYKDLY | 111000 |  |  |
| PPARγ DBD-LBD (protein, NAD+) AIECRVCGDKASGFHYGVHACEGCKGFFRRTIRLKLIYDRCDLNCRIHKKSRNKCQYCRFQKCLAVGMSHNAIRFGRMPQAEKEKLLAEISSDIDQLNPESADLRALAKHLYDSYIKSFPLTKAKARAILTGKTTDKSPFVIYDMNSLMMGEDKIKFKHITPLQEQSKEVAIRIFQGCQFRSVEAVQEITEYAKSIPGFVNLDLNDQVTLLKYGVHEIIYTMLASLMNKDGVLISEGQGFMTREFLKSLRKPFGDFMEPKFEFAVKFNALELDDSDLAIFIAVIILSGDRPGLLNVKPIEDIQDNLLQALELQLKLNHPESSQLFAKLLQKMTDLRQIVTEHVQLLQVIKKTETDMSLHPLLQEIYKDLY | 1670 |  |  |

The remaining binders from weak to strong by Kd (SIRT1 NTD(3HB)-CD), led by results:

| Kd (SIRT1 NTD(3HB)-CD) [nM] | Kd (SIRT1 NTD(3HB)) [nM] | Kd (SIRT1 CD) [nM] | Binder |
| --- | --- | --- | --- |
| 1900 |  |  | PPARγ DBD-LBD (protein) AIECRVCGDKASGFHYGVHACEGCKGFFRRTIRLKLIYDRCDLNCRIHKKSRNKCQYCRFQKCLAVGMSHNAIRFGRMPQAEKEKLLAEISSDIDQLNPESADLRALAKHLYDSYIKSFPLTKAKARAILTGKTTDKSPFVIYDMNSLMMGEDKIKFKHITPLQEQSKEVAIRIFQGCQFRSVEAVQEITEYAKSIPGFVNLDLNDQVTLLKYGVHEIIYTMLASLMNKDGVLISEGQGFMTREFLKSLRKPFGDFMEPKFEFAVKFNALELDDSDLAIFIAVIILSGDRPGLLNVKPIEDIQDNLLQALELQLKLNHPESSQLFAKLLQKMTDLRQIVTEHVQLLQVIKKTETDMSLHPLLQEIYKDLY |
| 810 |  |  | PPARγ LBD (protein) PESADLRALAKHLYDSYIKSFPLTKAKARAILTGKTTDKSPFRIYDMNSLMMGEDKIKFKHITPLQEQSKEVAIRIFQGCQFRSVEAVQEITEYAKSIPGFVNLDLNDQVTLLKYGVHEIIYTMLASLMNKDGVLISEGQGFMTREFLKSLRKPFGDFMEPKFEFAVKFNALELDDSDLAIFIAVIILSGDRPGLLNVKPIEDIQDNLLQALELQLKLNHPESSQLFAKLLQKMTDLRQIVTEHVQLLQVIKKTETDMSLHPLLQEIYKDLY |
| 690 |  |  | PPARγ DBD-LBD (protein, Rosiglitazone) AIECRVCGDKASGFHYGVHACEGCKGFFRRTIRLKLIYDRCDLNCRIHKKSRNKCQYCRFQKCLAVGMSHNAIRFGRMPQAEKEKLLAEISSDIDQLNPESADLRALAKHLYDSYIKSFPLTKAKARAILTGKTTDKSPFVIYDMNSLMMGEDKIKFKHITPLQEQSKEVAIRIFQGCQFRSVEAVQEITEYAKSIPGFVNLDLNDQVTLLKYGVHEIIYTMLASLMNKDGVLISEGQGFMTREFLKSLRKPFGDFMEPKFEFAVKFNALELDDSDLAIFIAVIILSGDRPGLLNVKPIEDIQDNLLQALELQLKLNHPESSQLFAKLLQKMTDLRQIVTEHVQLLQVIKKTETDMSLHPLLQEIYKDLY |
| 210 |  |  | PPARγ LBD (protein) PESADLRALAKHLYDSYIKSFPLTKAKARAILTGKTTDKSPFVIYDMNSLMMGEDKIKFQHITPLQEQSKEVAIRIFQGCQFRSVEAVQEITEYAKSIPGFVNLDLNDQVTLLKYGVHEIIYTMLASLMNKDGVLISEGQGFMTREFLKSLRKPFGDFMEPKFEFAVKFNALELDDSDLAIFIAVIILSGDRPGLLNVKPIEDIQDNLLQALELQLKLNHPESSQLFAKLLQKMTDLRQIVTEHVQLLQVIKKTETDMSLHPLLQEIYKDLY |
| 170 |  |  | PPARγ LBD (protein) PESADLRALAKHLYDSYIKSFPLTKAKARAIRTGKTTDKSPFVIYDMNSLMMGEDKIKFKHITPLQEQSKEVAIRIFQGCQFRSVEAVQEITEYAKSIPGFVNLDLNDQVTLLKYGVHEIIYTMLASLMNKDGVLISEGQGFMTREFLKSLRKPFGDFMEPKFEFAVKFNALELDDSDLAIFIAVIILSGDRPGLLNVKPIEDIQDNLLQALELQLKLNHPESSQLFAKLLQKMTDLRQIVTEHVQLLQVIKKTETDMSLHPLLQEIYKDLY |
